Data as given in the supplement of paper PMC10567573.

B1: DYRK1B (parent)
chain: YQGPGTRRLQEVLGVQTGGPGGRR
B2: NET1 (parent)
chain: IKRTIRVLDVNNQSFREQEEPSNK

Variants of: B1
Test: protein stability index of a GFP-peptide fusion (GPS, HEK-293T) (PSI 1-6); higher = more stable
Conditions: c terminus: a fixed tail appended
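Further: lentivirally expressed fusions sorted by FACS into six bins by GFP to DsRed ratio, PSI derived from sequencing read proportions per bin multiplied by bin number.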

For YQGPGTRRLQEVLRVQTGGPGGRR [G14R], which protein stability index is on record?
Its protein stability index is 3.37.

For YQGPGTRRLQEVLWVQTGGPGGRR [G14W], which protein stability index is on record?
Its protein stability index is 2.11.

Which protein stability index does the source give for YQGPGTRRLQGVLGVQTGGPGGRR [E11G] here?
Its protein stability index is 3.78.

Which protein stability index does the source give for YQGPGTRRLQHVLGVQTGGPGGRR [E11H] here?
Its protein stability index is 2.43.

For YQGPGTRRLQAVLGVQTGGPGGRR [E11A], which protein stability index is on record?
The protein stability index was 2.57.

For YQGPGTRRLQRVLGVQTGGPGGRR [E11R], which protein stability index is on record?
Its protein stability index is 2.88.

With YQGPGTRRLQPVLGVQTGGPGGRR [E11P] as the variant, how does the protein stability index read?
Its protein stability index is 2.73.

For YMGPGTRRLQEVLGVQTGGPGGRR [Q2M], which protein stability index is on record?
Its protein stability index is 3.83.

For YYGPGTRRLQEVLGVQTGGPGGRR [Q2Y], which protein stability index is on record?
The protein stability index was 3.7.

For YDGPGTRRLQEVLGVQTGGPGGRR [Q2D], which protein stability index is on record?
Its protein stability index is 4.23.

Which protein stability index does the source give for YRGPGTRRLQEVLGVQTGGPGGRR [Q2R] here?
Its protein stability index is 3.87.

For YIGPGTRRLQEVLGVQTGGPGGRR [Q2I], which protein stability index is on record?
Its protein stability index is 2.52.

For YQFPGTRRLQEVLGVQTGGPGGRR [G3F], which protein stability index is on record?
Its protein stability index is 2.77.

Which protein stability index does the source give for YQEPGTRRLQEVLGVQTGGPGGRR [G3E] here?
Its protein stability index is 4.32.

For YQTPGTRRLQEVLGVQTGGPGGRR [G3T], which protein stability index is on record?
The protein stability index was 3.52.

With YQNPGTRRLQEVLGVQTGGPGGRR [G3N] as the variant, how does the protein stability index read?
The protein stability index was 3.71.

Which protein stability index does the source give for YQVPGTRRLQEVLGVQTGGPGGRR [G3V] here?
Its protein stability index is 2.38.

Which protein stability index does the source give for YQGPGTRRLQEVLGVQTGGMGGRR [P20M] here?
Its protein stability index is 3.02.

Which protein stability index does the source give for YQGPGTRRLQEVLGVQTGGDGGRR [P20D] here?
The protein stability index was 3.51.

With YQGPGTRRLQEVLGVQTGIPGGRR [G19I] as the variant, how does the protein stability index read?
The protein stability index was 2.85.

For YQGPGTRRLQEVLGVQTGEPGGRR [G19E], which protein stability index is on record?
The protein stability index was 3.63.

For YQGPGTRRLQEVLGVQTGLPGGRR [G19L], which protein stability index is on record?
Its protein stability index is 2.81.

For YQGPGTRRLQEVLGVQTGMPGGRR [G19M], which protein stability index is on record?
The protein stability index was 2.75.

For YQGYGTRRLQEVLGVQTGGPGGRR [P4Y], which protein stability index is on record?
Its protein stability index is 2.35.

For YQGLGTRRLQEVLGVQTGGPGGRR [P4L], which protein stability index is on record?
The protein stability index was 2.39.

Which protein stability index does the source give for YQGNGTRRLQEVLGVQTGGPGGRR [P4N] here?
The protein stability index was 2.69.

Which protein stability index does the source give for YQGPGTRRLQEVLGMQTGGPGGRR [V15M] here?
The protein stability index was 2.24.

Which protein stability index does the source give for YQGPGTRRHQEVLGVQTGGPGGRR [L9H] here?
Its protein stability index is 2.81.

For YQGPGTRRKQEVLGVQTGGPGGRR [L9K], which protein stability index is on record?
The protein stability index was 4.06.

With YQGPGTRRNQEVLGVQTGGPGGRR [L9N] as the variant, how does the protein stability index read?
The protein stability index was 3.61.

For YQGPGTRRTQEVLGVQTGGPGGRR [L9T], which protein stability index is on record?
The protein stability index was 4.27.

Which protein stability index does the source give for YQGPGTRRLQEVQGVQTGGPGGRR [L13Q] here?
The protein stability index was 3.89.

For YQGPGTRRLQEVWGVQTGGPGGRR [L13W], which protein stability index is on record?
Its protein stability index is 1.67.

With YQGPGTRRLQEVVGVQTGGPGGRR [L13V] as the variant, how does the protein stability index read?
Its protein stability index is 3.68.

Which protein stability index does the source give for YQGPGTRRLQEVLGVQTGGPGGRL [R24L] here?
The protein stability index was 2.87.

With YQGPGTRRLQEVLGVQTGGPGGRE [R24E] as the variant, how does the protein stability index read?
Its protein stability index is 3.67.

With YQGPGTRRLQEVLGVQTGGPGGRN [R24N] as the variant, how does the protein stability index read?
Its protein stability index is 3.43.

For YQGPGTRRLQEVLGVQTGGPGGRG [R24G], which protein stability index is on record?
The protein stability index was 3.4.

With YQGPGTRRLQEVLGVQTGGPGGRV [R24V] as the variant, how does the protein stability index read?
Its protein stability index is 3.54.

With YQGPGTRRLQEVLGVQTGGPGGRY [R24Y] as the variant, how does the protein stability index read?
Its protein stability index is 3.24.

Which protein stability index does the source give for YQGPGTRKLQEVLGVQTGGPGGRR [R8K] here?
The protein stability index was 2.9.

With YQGPGTRCLQEVLGVQTGGPGGRR [R8C] as the variant, how does the protein stability index read?
Its protein stability index is 2.21.

With YQGPGTRHLQEVLGVQTGGPGGRR [R8H] as the variant, how does the protein stability index read?
The protein stability index was 4.21.

Which protein stability index does the source give for YQGPGTRALQEVLGVQTGGPGGRR [R8A] here?
Its protein stability index is 3.24.

Which protein stability index does the source give for YQGPGTRRLTEVLGVQTGGPGGRR [Q10T] here?
The protein stability index was 3.39.

Which protein stability index does the source give for YQGPGTRRLHEVLGVQTGGPGGRR [Q10H] here?
The protein stability index was 2.98.

Which protein stability index does the source give for YQGPGTRRLFEVLGVQTGGPGGRR [Q10F] here?
Its protein stability index is 2.34.

For YQGPGTRRLQEVLGVQTTGPGGRR [G18T], which protein stability index is on record?
Its protein stability index is 3.51.

Which protein stability index does the source give for YQGPGTRRLQEVLGVQTKGPGGRR [G18K] here?
Its protein stability index is 2.6.

Which protein stability index does the source give for YQGPGTRRLQEVLGVQTVGPGGRR [G18V] here?
The protein stability index was 3.06.

Which protein stability index does the source give for NQGPGTRRLQEVLGVQTGGPGGRR [Y1N] here?
Its protein stability index is 4.63.

For MQGPGTRRLQEVLGVQTGGPGGRR [Y1M], which protein stability index is on record?
Its protein stability index is 4.18.

Which protein stability index does the source give for YQGPGTRRLQEVLGVKTGGPGGRR [Q16K] here?
The protein stability index was 3.55.

With YQGPGTRRLQEVLGVITGGPGGRR [Q16I] as the variant, how does the protein stability index read?
Its protein stability index is 1.74.

For YQGPGTRRLQEVLGVQLGGPGGRR [T17L], which protein stability index is on record?
The protein stability index was 3.3.

Which protein stability index does the source give for YQGPGTRRLQEVLGVQTGGPGGTR [R23T] here?
Its protein stability index is 3.23.

With YQGPGTRRLQEVLGVQTGGPGGER [R23E] as the variant, how does the protein stability index read?
Its protein stability index is 3.32.

With YQGPGTRRLQEVLGVQTGGPGGGR [R23G] as the variant, how does the protein stability index read?
Its protein stability index is 3.01.

For YQGPGCRRLQEVLGVQTGGPGGRR [T6C], which protein stability index is on record?
The protein stability index was 2.32.

Which protein stability index does the source give for YQGPGFRRLQEVLGVQTGGPGGRR [T6F] here?
Its protein stability index is 2.88.

With YQGPGWRRLQEVLGVQTGGPGGRR [T6W] as the variant, how does the protein stability index read?
Its protein stability index is 2.17.

With YQGPGGRRLQEVLGVQTGGPGGRR [T6G] as the variant, how does the protein stability index read?
Its protein stability index is 3.32.

With YQGPGDRRLQEVLGVQTGGPGGRR [T6D] as the variant, how does the protein stability index read?
Its protein stability index is 3.79.

With YQGPGKRRLQEVLGVQTGGPGGRR [T6K] as the variant, how does the protein stability index read?
Its protein stability index is 2.33.

With YQGPGTRRLQEVLGVQTGGPGSRR [G22S] as the variant, how does the protein stability index read?
Its protein stability index is 3.05.

For YQGPGTRRLQEVLGVQTGGPGKRR [G22K], which protein stability index is on record?
Its protein stability index is 2.51.

With YQGPGTRRLQEVLGVQTGGPGLRR [G22L] as the variant, how does the protein stability index read?
The protein stability index was 2.94.

Which protein stability index does the source give for YQGPGTRRLQEVLGVQTGGPGMRR [G22M] here?
Its protein stability index is 2.67.

Variants of: B2
Test: as above
Conditions: c terminus: a fixed tail appended

Which protein stability index does the source give for IKRTISVLDVNNQSFREQEEPSNK [R6S] here?
The protein stability index was 4.23.

Which protein stability index does the source give for IKRTIHVLDVNNQSFREQEEPSNK [R6H] here?
The protein stability index was 4.45.

With IKRTILVLDVNNQSFREQEEPSNK [R6L] as the variant, how does the protein stability index read?
Its protein stability index is 2.63.

Which protein stability index does the source give for IKRTITVLDVNNQSFREQEEPSNK [R6T] here?
Its protein stability index is 3.92.

With IKRTIQVLDVNNQSFREQEEPSNK [R6Q] as the variant, how does the protein stability index read?
The protein stability index was 4.16.

For IKRTIVVLDVNNQSFREQEEPSNK [R6V], which protein stability index is on record?
Its protein stability index is 2.77.

For IKRTIDVLDVNNQSFREQEEPSNK [R6D], which protein stability index is on record?
Its protein stability index is 4.77.

With IKRTIEVLDVNNQSFREQEEPSNK [R6E] as the variant, how does the protein stability index read?
Its protein stability index is 4.65.

For IKRTIFVLDVNNQSFREQEEPSNK [R6F], which protein stability index is on record?
The protein stability index was 2.68.

For IKRTIGVLDVNNQSFREQEEPSNK [R6G], which protein stability index is on record?
The protein stability index was 4.51.

With IKRTIYVLDVNNQSFREQEEPSNK [R6Y] as the variant, how does the protein stability index read?
The protein stability index was 2.35.

With IKRTIKVLDVNNQSFREQEEPSNK [R6K] as the variant, how does the protein stability index read?
The protein stability index was 4.04.

Which protein stability index does the source give for IKRTIMVLDVNNQSFREQEEPSNK [R6M] here?
Its protein stability index is 3.32.

With IKRTICVLDVNNQSFREQEEPSNK [R6C] as the variant, how does the protein stability index read?
The protein stability index was 3.35.

Which protein stability index does the source give for IKRTIIVLDVNNQSFREQEEPSNK [R6I] here?
The protein stability index was 1.99.

For IKRTIAVLDVNNQSFREQEEPSNK [R6A], which protein stability index is on record?
The protein stability index was 2.88.

With IKRTINVLDVNNQSFREQEEPSNK [R6N] as the variant, how does the protein stability index read?
The protein stability index was 3.62.

With IKRTIWVLDVNNQSFREQEEPSNK [R6W] as the variant, how does the protein stability index read?
Its protein stability index is 2.42.

Which protein stability index does the source give for IKRTIPVLDVNNQSFREQEEPSNK [R6P] here?
Its protein stability index is 4.87.

With IKRTIRKLDVNNQSFREQEEPSNK [V7K] as the variant, how does the protein stability index read?
Its protein stability index is 4.37.

For IKRTIRHLDVNNQSFREQEEPSNK [V7H], which protein stability index is on record?
Its protein stability index is 4.25.

With IKRTIRILDVNNQSFREQEEPSNK [V7I] as the variant, how does the protein stability index read?
The protein stability index was 4.02.

With IKRTIRGLDVNNQSFREQEEPSNK [V7G] as the variant, how does the protein stability index read?
Its protein stability index is 3.92.

For IKRTIRDLDVNNQSFREQEEPSNK [V7D], which protein stability index is on record?
The protein stability index was 4.53.

Which protein stability index does the source give for IKRTIRELDVNNQSFREQEEPSNK [V7E] here?
The protein stability index was 3.74.

Which protein stability index does the source give for IKRTIRCLDVNNQSFREQEEPSNK [V7C] here?
The protein stability index was 3.62.
